Reference: US5780265A, “Kunitz type plasma kallikrein inhibitors” (Genentech, Inc., priority 1995, dated 1998)

Key:
Format in all cases: biochemical
plasma kallikrein = target: T1, plasma kallikrein (Homo sapiens, UniProt P03952); experiment: Specificity assay, plasma kallikrein; conditions: 100 nM inhibitor; plasma kallikrein 3.5 nM, 0.7 mM S2302; 2 h room temperature
T1 construct: Human plasma kallikrein and Factor XIIa were purchased; purchased Enzyme Research Laboratories, Inc. (South Bend, Ind.)
Experimental: (§3) Aliquots (30 μL) of various inhibitors diluted to 500 nM were incubated with each protease (100 μL) in the appropriate buffer. After incubation of the substrate/inhibitor mixes at room temperature for 2 h, the appropriate substrate (20 μL) was added, and the absorbance at 405 nm was monitored. […] The FXIa assay also contained 1 mg/mL BSA. The concentration of FXIa throughout refers to the concentration of active sites. For this experiment, the concentrations of thrombin, TF-FVIIa, FXa, FXIa, FXIIa, and plasmin are approximate and are determined based upon the manufacturers' specifications.
(§4) Serine proteases (1 to 20 nM) were assayed in the presence of 100 nM inhibitor. […] The degree to which FXIa was inhibited by selected inhibitors including the consensus mutants was further investigated by measuring the Ki *.

Factor XIa [1] = target: T2, Factor XIa (Homo sapiens, UniProt P03951); experiment: Apparent equilibrium dissociation constant (Ki*) with FXIa; conditions: at least 3 independent measurements
T2 construct: purchased Haematologic Technologies Inc. (Essex Jct., Vt.)
Experimental: as §4

[2] = target: T3, TF-FVIIa (tissue factor-Factor VIIa) (Homo sapiens, UniProt P08709); experiment: Specificity assay, TF-FVIIa; conditions: 100 nM inhibitor; TF 77 nM-FVIIa 14 nM, 0.7 mM S2366
T3 construct: purchased Haematologic Technologies Inc. (FVIIa); TF made in house; host or cells: E. coli (TF 1-243)
Experimental: as §3, §4

Factor XIa [3] = target: T2, Factor XIa; experiment: Specificity assay, Factor XIa; conditions: 100 nM inhibitor; FXIa […], 0.7 mM S2366, 1 mg/mL BSA
Experimental: as §3, §4

[4] = tested on: extrinsic coagulation pathway; experiment: Prothrombin time (PT) clotting assay, tissue factor initiated; conditions: normal human plasma, TF initiated
Experimental: (§1) FIG. 5A and FIG. 5B. […] The uninhibited clotting times were 33.6 sec and 14 sec for the APTT and PT, respectively
(§2) Clotting times for normal human plasma were performed using an MLA Electra 800 Coagulometer (Medical Laboratory Automation, Inc. Pleasantville, N.Y.) and Dade reagents (Baxter Health Care Corp., Miami Fla.). The clotting time was determined by optical assessment.

[5] = tested on: intrinsic coagulation pathway; experiment: Activated partial thromboplastin time (APTT) clotting assay in normal human plasma; conditions: 1 μM inhibitor
Experimental: as §1, §2
For the activated partial thromboplastin time (APTT) assays, the activation time was set at 120 sec and acquisition time at 300 to 600 sec depending on the expected outcome of the assay. Citrated normal human plasma and inhibitor were incubated together. The sample (plasma and inhibitor) and activator (Actin FS) were automatically pipetted and incubated is together for 2 min at 37° C., then CaCl2 was added and clotting time determined by means of optical assessment. The total incubation time of inhibitor with plasma was ca. 3 min before addition of activator, and 5 min before addition of CaCl2.

T2 sequence (P03951 388-625 limits assumed): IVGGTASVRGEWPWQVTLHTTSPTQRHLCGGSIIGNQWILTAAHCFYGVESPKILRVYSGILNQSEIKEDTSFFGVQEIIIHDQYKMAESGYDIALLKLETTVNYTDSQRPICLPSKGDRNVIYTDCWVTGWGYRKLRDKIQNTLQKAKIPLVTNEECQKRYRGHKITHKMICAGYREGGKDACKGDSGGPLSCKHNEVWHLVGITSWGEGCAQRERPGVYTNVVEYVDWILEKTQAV
T2 sequence (P03951 19-387 limits assumed): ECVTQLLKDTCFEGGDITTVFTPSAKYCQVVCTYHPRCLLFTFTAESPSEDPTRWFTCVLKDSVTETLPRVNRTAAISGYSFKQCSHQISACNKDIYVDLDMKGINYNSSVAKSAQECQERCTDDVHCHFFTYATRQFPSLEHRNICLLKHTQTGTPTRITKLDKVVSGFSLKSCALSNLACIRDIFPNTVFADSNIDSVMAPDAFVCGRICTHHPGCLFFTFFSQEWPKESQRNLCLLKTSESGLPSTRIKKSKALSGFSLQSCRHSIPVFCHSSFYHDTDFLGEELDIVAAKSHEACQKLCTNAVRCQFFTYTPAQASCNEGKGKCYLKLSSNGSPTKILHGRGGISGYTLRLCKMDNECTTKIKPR
T1 sequence (P03952 391-638 limits assumed): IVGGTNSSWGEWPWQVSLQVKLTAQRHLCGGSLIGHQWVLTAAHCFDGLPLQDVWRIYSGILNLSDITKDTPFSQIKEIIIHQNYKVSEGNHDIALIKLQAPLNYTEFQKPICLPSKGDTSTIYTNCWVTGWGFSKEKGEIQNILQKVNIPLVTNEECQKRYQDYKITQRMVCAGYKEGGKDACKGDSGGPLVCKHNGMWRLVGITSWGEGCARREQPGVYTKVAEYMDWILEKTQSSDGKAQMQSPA
T1 sequence (P03952 20-390 limits assumed): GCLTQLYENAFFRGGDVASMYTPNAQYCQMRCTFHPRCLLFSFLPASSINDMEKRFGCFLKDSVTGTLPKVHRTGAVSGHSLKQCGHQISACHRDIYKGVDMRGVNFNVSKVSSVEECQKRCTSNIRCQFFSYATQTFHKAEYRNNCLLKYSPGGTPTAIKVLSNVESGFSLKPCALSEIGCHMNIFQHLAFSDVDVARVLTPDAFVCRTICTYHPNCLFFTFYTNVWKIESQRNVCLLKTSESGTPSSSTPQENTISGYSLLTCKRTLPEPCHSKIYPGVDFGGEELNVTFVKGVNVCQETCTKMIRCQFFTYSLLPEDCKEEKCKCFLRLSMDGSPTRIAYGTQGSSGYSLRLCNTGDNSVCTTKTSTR
T3 sequence (P08709 213-466 limits assumed): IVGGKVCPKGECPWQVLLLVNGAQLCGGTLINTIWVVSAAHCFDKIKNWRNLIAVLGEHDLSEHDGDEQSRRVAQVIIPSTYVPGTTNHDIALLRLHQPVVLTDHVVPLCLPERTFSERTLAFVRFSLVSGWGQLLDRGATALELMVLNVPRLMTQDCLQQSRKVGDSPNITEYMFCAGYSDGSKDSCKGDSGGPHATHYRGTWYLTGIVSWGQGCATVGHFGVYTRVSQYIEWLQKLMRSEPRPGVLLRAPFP
T3 sequence (P08709 61-212 limits assumed): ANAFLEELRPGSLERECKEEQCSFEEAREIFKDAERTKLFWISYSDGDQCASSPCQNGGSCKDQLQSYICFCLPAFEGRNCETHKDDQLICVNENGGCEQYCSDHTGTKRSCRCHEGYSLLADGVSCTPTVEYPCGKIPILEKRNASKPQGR
T3 sequence (P13726 33-275 partner limits assumed): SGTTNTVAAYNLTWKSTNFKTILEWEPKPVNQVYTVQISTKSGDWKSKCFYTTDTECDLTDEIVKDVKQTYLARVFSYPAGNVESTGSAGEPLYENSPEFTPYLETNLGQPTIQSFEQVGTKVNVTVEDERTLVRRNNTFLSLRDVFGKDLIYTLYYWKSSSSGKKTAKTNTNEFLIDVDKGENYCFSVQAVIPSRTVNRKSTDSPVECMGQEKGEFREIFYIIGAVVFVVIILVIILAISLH

Q: What does the source list for “APPI: 58 amino acid Kunitz domain from human Alzheimer's disease amyloid β-protein precursor, residues 287-344; here Met52 replaced with Ala [reference compound]”?
A: fraction of remaining proteolytic activity, plasma kallikrein (plasma kallikrein): 0.81; Ki (Factor XIa [1]): 2.7 ± 1.4 nM; fraction of remaining proteolytic activity, TF · Factor VIIa [2]: 0.60; fraction of remaining proteolytic activity, Factor XIa (Factor XIa [3]): 0.03; prolongation of clotting time in PT assay (in words) [4]: neither KALI-DY, BPTI, nor APPI appreciably prolonged; fold prolongation of clotting time, APTT [5]: 2.8 fold
